From the supplement of paper PMC9112550, “Optimization of the antimicrobial peptide Bac7 by deep mutational scanning” (BMC Biology, 2022)

Each sequence was assayed on Escherichia coli TOP10 (assay: shrunken log2 fold change of peptide-encoding DNA abundance (4.5 h post-induction vs induction); higher = less antimicrobial activity (less host growth inhibition)). Details: time post-induction: 4.5 h; library: site-saturation at positions 5, 18, 19, 20.
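Note: peptides expressed intracellularly from a pBAD plasmid library in pooled LB shake-flask culture, induced with 0.3% L-arabinose, DNA abundance read by NGS, three biological replicates, DESeq2 with apeglm shrinkage.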

Sequence	shrunken log2 fold change
RRIRWRPPRLPRPRPRPWGGPRP	0.556
RRIRRRPPRLPRPRPRPDAHPRP	-0.00208
RRIRPRPPRLPRPRPRPRTHPRP	0.107
RRIRMRPPRLPRPRPRPDAVPRP	3.73
RRIRFRPPRLPRPRPRPRSFPRP	-0.138
RRIRPRPPRLPRPRPRPSHDPRP	-0.339
RRIRERPPRLPRPRPRPKKFPRP	-0.524
RRIRFRPPRLPRPRPRPFWPPRP	0.234
RRIRGRPPRLPRPRPRPKTKPRP	0.0509
RRIRCRPPRLPRPRPRPNFNPRP	-0.372
RRIRIRPPRLPRPRPRPGLVPRP	0.0385
RRIRFRPPRLPRPRPRPFENPRP	-0.0822
RRIRQRPPRLPRPRPRPHMRPRP	0.36
RRIRIRPPRLPRPRPRPSMGPRP	-0.222
RRIRKRPPRLPRPRPRPPMEPRP	0.135
RRIRLRPPRLPRPRPRPIVLPRP	-0.345
RRIRHRPPRLPRPRPRPWKYPRP	-0.253
RRIRARPPRLPRPRPRPPYCPRP	0.276
RRIRKRPPRLPRPRPRPYATPRP	0.0656
RRIRPRPPRLPRPRPRPGDFPRP	-0.0208
RRIRQRPPRLPRPRPRPGYLPRP	0.0613
RRIRRRPPRLPRPRPRPRTCPRP	0.477
RRIRNRPPRLPRPRPRPMFHPRP	-0.678
RRIRPRPPRLPRPRPRPLIHPRP	-0.472
RRIRLRPPRLPRPRPRPQMPPRP	-0.417

Sequence	shrunken log2 fold change
RRIRARPPRLPRPRPRPTDGPRP	0.0971
RRIRTRPPRLPRPRPRPNNEPRP	-0.581
RRIRDRPPRLPRPRPRPRHWPRP	0.548
RRIRERPPRLPRPRPRPCSIPRP	-0.471
RRIRDRPPRLPRPRPRPCAHPRP	0.07
RRIRTRPPRLPRPRPRPQPGPRP	0.165
RRIRNRPPRLPRPRPRPEVFPRP	0.0362
RRIRRRPPRLPRPRPRPSFWPRP	0.38
RRIRYRPPRLPRPRPRPAAWPRP	0.00758
RRIRIRPPRLPRPRPRPILHPRP	-0.469
RRIRERPPRLPRPRPRPFYDPRP	-0.106
RRIRWRPPRLPRPRPRPEDAPRP	0.00499
RRIRTRPPRLPRPRPRPKHIPRP	-0.823
RRIRLRPPRLPRPRPRPNGVPRP	0.0191
RRIRNRPPRLPRPRPRPWFLPRP	-0.0768
RRIRARPPRLPRPRPRPPATPRP	1.63
RRIRLRPPRLPRPRPRPKMIPRP	-0.378
RRIRYRPPRLPRPRPRPPLGPRP	-0.258
RRIRPRPPRLPRPRPRPIFVPRP	-0.197
RRIRMRPPRLPRPRPRPTPHPRP	1.13
RRIRIRPPRLPRPRPRPSPHPRP	-1.03
RRIRGRPPRLPRPRPRPMKSPRP	0.206
RRIRGRPPRLPRPRPRPHPAPRP	0.853
RRIRTRPPRLPRPRPRPMYIPRP	-1.2
RRIRRRPPRLPRPRPRPHHEPRP	0.0234

Sequence	shrunken log2 fold change
RRIRVRPPRLPRPRPRPFTLPRP	-0.104
RRIRCRPPRLPRPRPRPKMDPRP	-0.0622
RRIRFRPPRLPRPRPRPWVFPRP	-0.00336
RRIRWRPPRLPRPRPRPKMGPRP	0.0381
RRIRKRPPRLPRPRPRPQVGPRP	0.0646
RRIRTRPPRLPRPRPRPCHFPRP	-0.387
RRIRRRPPRLPRPRPRPRTGPRP	0.476
RRIRVRPPRLPRPRPRPKSGPRP	0.148
RRIRCRPPRLPRPRPRPKECPRP	0.103
RRIRNRPPRLPRPRPRPLFRPRP	-0.266
RRIRMRPPRLPRPRPRPNIKPRP	-0.266
RRIRARPPRLPRPRPRPVVKPRP	0.298
RRIRARPPRLPRPRPRPMKAPRP	0.0595
RRIRARPPRLPRPRPRPLDLPRP	0.227
RRIRPRPPRLPRPRPRPEWLPRP	0.404
RRIRERPPRLPRPRPRPLAEPRP	0.17
RRIRGRPPRLPRPRPRPLNIPRP	-0.148
RRIRKRPPRLPRPRPRPNRDPRP	0.169
RRIRIRPPRLPRPRPRPMVFPRP	-0.263
RRIRIRPPRLPRPRPRPDWKPRP	0.036
RRIRVRPPRLPRPRPRPQDGPRP	-0.00098
RRIRDRPPRLPRPRPRPKKTPRP	-0.0142
RRIRVRPPRLPRPRPRPNFGPRP	-0.098
RRIRPRPPRLPRPRPRPHAPPRP	0.082
RRIRERPPRLPRPRPRPRQNPRP	0.177
